Patent US20120244164A1 (published 2012)

B1: A007901222 (bispecific antibody)
chain: DVQLVESGGGLVQPGGSLRLSCAASGFILDYYAIGWFRQAPGKEREGVLCIDASDDITYYADSVKGRFTISRDNSKNTVYLQMNSLRPEDTAVYYCATPIGLSSSCLLEYDYDYWGQGTLVTVSSGGGGSGGGSEVQLLESGGGLVQPGGSLRLSCAASGFTFRSFGMSWVRQAPGKGPEWVSSISGSGSDTLYADSVKGRFTISRDNSKNTLYLQMNSLRPEDTAVYYCTIGGSLSRSSQGTLVTVSSA
notes: produced in P. pastoris X33; also called A00790105-9GS-Alb23-A
B2: A007901219 (A00790105-9GS-Alb23) (bispecific antibody)
chain: DVQLVESGGGLVQPGGSLRLSCAASGFILDYYAIGWFRQAPGKEREGVLCIDASDDITYYADSVKGRFTISRDNSKNTVYLQMNSLRPEDTAVYYCATPIGLSSSCLLEYDYDYWGQGTLVTVSSGGGGSGGGSEVQLLESGGGLVQPGGSLRLSCAASGFTFRSFGMSWVRQAPGKGPEWVSSISGSGSDTLYADSVKGRFTISRDNSKNTLYLQMNSLRPEDTAVYYCTIGGSLSRSSQGTLVTVSS
notes: also called A007901219 (Alb23)

Legend:
Human c-Met [1] = biological target: T1, Human c-Met (human, UniProt P08581 25-1390); assay: cell-based or functional assay
[2] = biological target: T2, recombinant human c-Met/Fc chimera (R&D systems) (human); assay: HGF-competition Alphascreen: biotinylated hHGF, human c-Met/Fc
T2 construct: R&D Systems 358-MT/CF, expressed in NS0 cells; also called hc-Met/Fc; hu c-Met/Fc

Human c-Met [3] = biological target: T1, Human c-Met; assay: cell-based or functional assay; remark: listed apart in the source
Human c-Met [4] = biological target: T1, Human c-Met; assay: cell-based or functional assay; remark: listed apart in the source
[5] = biological target: T2, recombinant human c-Met/Fc chimera (R&D …); assay: HGF/c-MET competition Alphascreen; reference 5D5 Fab v2
Method: (§1) To this mixture the anti-human Fc conjugated acceptor beads and c-MET/Fc (100 pM final concentration) were added and incubated for 2 hours at RT. Next, streptavidin donor beads were added and the mixture was incubated for 1 additional hour. Fluorescence was measured by reading plates on the EnVision Multilabel Plate Reader using an excitation wavelength of 680 nm and an emission wavelength of 520 nm.

[6] = biological target: T2, recombinant human c-Met/Fc chimera (R&D …); assay: HGF/c-MET competition Alphascreen: 100 pM biotinylated hHGF, 100 pM c-MET/Fc
Method: as §1

T1 sequence (P08581 25-1390 limits assumed): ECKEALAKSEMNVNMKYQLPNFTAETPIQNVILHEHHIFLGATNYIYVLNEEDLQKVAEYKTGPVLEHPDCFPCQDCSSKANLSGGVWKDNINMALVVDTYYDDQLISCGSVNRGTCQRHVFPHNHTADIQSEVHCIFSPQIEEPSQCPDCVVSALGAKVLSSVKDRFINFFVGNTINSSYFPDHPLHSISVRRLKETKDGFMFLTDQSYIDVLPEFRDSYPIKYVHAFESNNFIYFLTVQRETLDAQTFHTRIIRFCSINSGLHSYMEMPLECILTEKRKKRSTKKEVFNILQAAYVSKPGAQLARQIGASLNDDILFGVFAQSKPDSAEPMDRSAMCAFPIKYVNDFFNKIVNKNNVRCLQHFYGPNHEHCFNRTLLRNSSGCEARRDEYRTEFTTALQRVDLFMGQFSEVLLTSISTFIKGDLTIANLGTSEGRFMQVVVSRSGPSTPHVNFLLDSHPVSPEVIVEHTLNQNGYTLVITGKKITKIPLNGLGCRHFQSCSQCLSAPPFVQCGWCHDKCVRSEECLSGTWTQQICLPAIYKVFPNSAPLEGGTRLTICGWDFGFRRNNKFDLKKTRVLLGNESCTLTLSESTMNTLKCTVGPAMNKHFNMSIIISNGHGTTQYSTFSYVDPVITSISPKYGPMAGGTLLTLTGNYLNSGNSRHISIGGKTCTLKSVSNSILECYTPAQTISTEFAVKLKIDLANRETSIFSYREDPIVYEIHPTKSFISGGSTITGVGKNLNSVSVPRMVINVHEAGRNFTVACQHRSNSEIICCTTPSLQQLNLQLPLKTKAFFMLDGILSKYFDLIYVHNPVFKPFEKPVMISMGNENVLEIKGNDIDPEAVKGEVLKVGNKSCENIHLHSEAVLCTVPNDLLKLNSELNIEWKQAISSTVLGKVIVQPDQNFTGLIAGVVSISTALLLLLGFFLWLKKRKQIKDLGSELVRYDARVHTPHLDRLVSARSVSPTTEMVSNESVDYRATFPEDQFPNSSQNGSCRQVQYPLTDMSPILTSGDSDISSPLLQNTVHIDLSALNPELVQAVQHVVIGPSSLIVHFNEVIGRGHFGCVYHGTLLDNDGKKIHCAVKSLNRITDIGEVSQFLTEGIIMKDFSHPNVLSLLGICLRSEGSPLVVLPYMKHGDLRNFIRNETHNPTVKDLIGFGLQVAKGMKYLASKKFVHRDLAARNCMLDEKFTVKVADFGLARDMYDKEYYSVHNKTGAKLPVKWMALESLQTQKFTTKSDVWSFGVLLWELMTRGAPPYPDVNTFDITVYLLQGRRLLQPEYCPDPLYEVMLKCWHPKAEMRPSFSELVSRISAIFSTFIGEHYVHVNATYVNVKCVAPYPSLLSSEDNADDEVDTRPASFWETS
T2 sequence (chain, as listed by the source mutant limits assumed): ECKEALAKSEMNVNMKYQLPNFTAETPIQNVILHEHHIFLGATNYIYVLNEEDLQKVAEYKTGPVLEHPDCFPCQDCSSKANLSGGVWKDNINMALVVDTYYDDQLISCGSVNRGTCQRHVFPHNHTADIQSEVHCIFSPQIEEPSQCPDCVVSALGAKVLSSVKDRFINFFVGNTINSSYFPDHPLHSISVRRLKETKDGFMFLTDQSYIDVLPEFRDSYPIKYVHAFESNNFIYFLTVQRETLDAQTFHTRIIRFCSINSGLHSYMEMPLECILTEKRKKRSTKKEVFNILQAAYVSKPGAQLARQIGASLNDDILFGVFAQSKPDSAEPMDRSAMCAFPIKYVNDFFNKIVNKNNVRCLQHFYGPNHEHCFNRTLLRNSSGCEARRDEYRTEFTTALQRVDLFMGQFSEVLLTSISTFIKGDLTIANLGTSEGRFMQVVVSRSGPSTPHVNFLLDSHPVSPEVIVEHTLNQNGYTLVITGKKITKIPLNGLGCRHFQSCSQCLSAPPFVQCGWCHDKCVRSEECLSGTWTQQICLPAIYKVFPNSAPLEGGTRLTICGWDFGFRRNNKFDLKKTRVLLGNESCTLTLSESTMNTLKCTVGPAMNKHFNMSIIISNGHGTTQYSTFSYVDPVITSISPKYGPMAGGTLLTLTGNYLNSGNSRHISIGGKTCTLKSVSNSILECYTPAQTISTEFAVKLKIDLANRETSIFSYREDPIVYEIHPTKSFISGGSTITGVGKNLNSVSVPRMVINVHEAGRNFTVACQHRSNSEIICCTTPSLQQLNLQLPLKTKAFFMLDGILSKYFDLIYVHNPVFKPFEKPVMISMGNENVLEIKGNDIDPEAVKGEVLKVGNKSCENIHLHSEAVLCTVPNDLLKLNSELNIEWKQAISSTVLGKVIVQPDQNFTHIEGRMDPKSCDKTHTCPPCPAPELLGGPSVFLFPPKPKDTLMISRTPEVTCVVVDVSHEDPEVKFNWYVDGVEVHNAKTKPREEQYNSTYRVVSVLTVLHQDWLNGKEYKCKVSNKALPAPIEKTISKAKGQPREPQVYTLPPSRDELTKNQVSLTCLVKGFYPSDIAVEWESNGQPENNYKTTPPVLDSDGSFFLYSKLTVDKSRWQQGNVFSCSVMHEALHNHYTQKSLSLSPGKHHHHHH

Binder	IC50, c-Met phosphorylation (Human c-Met [1])	IC50, proliferation assay (Human c-Met [1])	IC50 [2]	fold improved potency against 5D5 Fab v2, cMET phosphorylation assay (Human c-Met [3])	IC50, cMET phosphorylation assay, A549 cells, +HSA (Human c-Met [4])	IC50, cMET phosphorylation assay, A549 cells, -HSA (Human c-Met [4])	fold improved potency against 5D5 Fab v2 [5]	IC50 [6]
B1	3.97 nM	1.37 nM	0.072 nM	–	–	–	–	–
B2	–	–	–	~2 fold	4.2 nM	5.41 nM	> 5 fold	0.066 nM
